Results taken from US20200247897A1 (Genmab, published 2020).

Tests used:
murine DR5 = target: T1, murine DR5 (mouse (Mus musculus), UniProt Q9QZM4 53-381); experiment: flow cytometry on transfected CHO cells
T1 construct: also called mouse DR5

[1] = target: T2, cynomolgus monkey DR5 protein with deletion of amino acids 185-213 and death domain loss-of-function mutation … (cynomolgus monkey (Macaca fascicularis)); experiment: flow cytometry on cynomolgus DR5-transfected CHO cells; four experiments
T2 construct: also called Cyno DR5Mfdel-K420N
T2 chain: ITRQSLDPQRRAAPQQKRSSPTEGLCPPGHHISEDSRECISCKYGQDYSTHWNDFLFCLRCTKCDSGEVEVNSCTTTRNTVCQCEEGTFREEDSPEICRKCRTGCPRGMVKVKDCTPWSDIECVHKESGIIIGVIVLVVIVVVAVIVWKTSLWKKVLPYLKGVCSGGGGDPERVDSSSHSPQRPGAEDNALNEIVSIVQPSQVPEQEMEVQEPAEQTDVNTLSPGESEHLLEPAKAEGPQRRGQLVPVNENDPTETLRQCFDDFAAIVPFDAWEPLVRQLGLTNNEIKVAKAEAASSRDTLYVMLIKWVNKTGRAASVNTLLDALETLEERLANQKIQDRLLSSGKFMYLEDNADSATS

[2] = target: T3, human DR5 (death receptor 5) on DR5-positive human colon cancer cells (human, UniProt O14763 56-440); experiment: flow cytometry on HCT 116 cells
T3 construct: Endogenous receptor of the cell lines; also called CD262; TRAILR2

T1 sequence (Q9QZM4 53-381 limits assumed): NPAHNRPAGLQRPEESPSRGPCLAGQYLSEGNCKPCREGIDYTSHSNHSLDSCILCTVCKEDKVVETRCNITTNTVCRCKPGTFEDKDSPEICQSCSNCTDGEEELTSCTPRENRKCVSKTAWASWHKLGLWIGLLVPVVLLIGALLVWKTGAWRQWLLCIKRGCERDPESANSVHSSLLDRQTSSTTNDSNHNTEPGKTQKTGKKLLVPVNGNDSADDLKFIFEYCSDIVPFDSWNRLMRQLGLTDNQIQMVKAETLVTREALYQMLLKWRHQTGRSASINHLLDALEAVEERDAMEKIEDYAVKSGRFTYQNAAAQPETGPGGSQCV

B1: IgG1-hDR5-05-F405L (antibody, name in EU numbering)
heavy: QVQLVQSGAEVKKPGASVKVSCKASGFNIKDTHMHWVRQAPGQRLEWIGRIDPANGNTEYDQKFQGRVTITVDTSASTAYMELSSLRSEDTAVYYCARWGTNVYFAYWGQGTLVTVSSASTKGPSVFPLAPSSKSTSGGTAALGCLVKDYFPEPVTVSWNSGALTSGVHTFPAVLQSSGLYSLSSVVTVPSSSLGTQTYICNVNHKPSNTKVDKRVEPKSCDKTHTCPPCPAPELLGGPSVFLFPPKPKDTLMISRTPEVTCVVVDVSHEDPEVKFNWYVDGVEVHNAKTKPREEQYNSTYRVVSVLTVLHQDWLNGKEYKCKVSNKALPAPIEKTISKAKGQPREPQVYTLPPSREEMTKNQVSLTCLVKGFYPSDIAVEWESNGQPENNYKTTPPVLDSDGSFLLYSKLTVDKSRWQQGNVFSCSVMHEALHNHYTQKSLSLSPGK
light: DIQLTQSPSSLSASVGDRVTITCSASSSVSYMYWYQQKPGKAPKPWIYRTSNLASGVPSRFSGSGSGTDFTLTISSLQPEDFATYYCQQYHSYPPTFGGGTKVEIKRTVAAPSVFIFPPSDEQLKSGTASVVCLLNNFYPREAKVQWKVDNALQSGNSQESVTEQDSKDSTYSLSSTLTLSKADYEKHKVYACEVTHQGLSSPVTKSFNRGEC
notes: Expressed as IgG1,kappa; also called humanized DR5-05
B1: no binding (tested: 10 µg/mL) (murine DR5).

B2: IgG1-hDR5-05-E430G (antibody)
heavy: not shown
light: B1 light
Work on B2 yielded an EC50 [1] of 0.17 µg/mL.

B3: IgG1-hDR5-05-N55D-F405L (antibody, V domains shown)
VH: QVQLVQSGAEVKKPGASVKVSCKASGFNIKDTHMHWVRQAPGQRLEWIGRIDPADGNTEYDQKFQGRVTITVDTSASTAYMELSSLRSEDTAVYYCARWGTNVYFAYWGQGTLVTVSS
VL: DIQLTQSPSSLSASVGDRVTITCSASSSVSYMYWYQQKPGKAPKPWIYRTSNLASGVPSRFSGSGSGTDFTLTISSLQPEDFATYYCQQYHSYPPTFGGGTKVEIKR
B3: binds [2].
